Experiments:
[1] = target: T1, Bet v 1 (isoform not stated for the experiment) (birch, UniProt P15494); assay: ELISA; inhibition ELISA: binding of scFv-Fcε to immobilized Bet v 1 in the presence of the identified peptides in soluble form; details: one partner purified
T1 construct: also called immobilized Bet v 1

[2] = target: T2, Recombinant Aln g 1.0101 (Alnus glutinosa, isoform Aln g 1.0101, UniProt P38948); assay: ELISA; allergens coated at 5 μg/mL in PBS; scFv-Fcε from HEK293 supernatant detected with HRP anti-IgE antiserum; duplicates; details: one partner purified
T2 construct: By its allergen name from Alnus glutinosa (alder); source: bought: Biomay (Vienna, Austria), recombinant
T2 sequence (P38948 whole entry, looked up, canonical isoform): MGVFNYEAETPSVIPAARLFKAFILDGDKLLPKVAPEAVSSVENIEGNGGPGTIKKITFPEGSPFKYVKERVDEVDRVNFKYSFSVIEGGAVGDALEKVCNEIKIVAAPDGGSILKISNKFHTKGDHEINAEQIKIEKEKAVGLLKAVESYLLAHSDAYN

B1: B13 scFv-Fcε fusion protein (Fc fusion)
VH: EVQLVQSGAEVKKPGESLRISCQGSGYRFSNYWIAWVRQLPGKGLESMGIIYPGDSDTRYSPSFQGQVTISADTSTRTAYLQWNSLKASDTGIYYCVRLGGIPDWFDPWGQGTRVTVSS
VL: SYELTQPPSVSGSPGQSVTISCTGTSSDVGGYNLVSWYQQHPGKAPRLMIYEDTKRPSGVSHRFSGSKSGNTASLTISGLQAEDEADYYCYSYATGRPSRLFGGGTKLTVL
notes: as the VH of m12; as the VL of m12; also called B13 scFv-CHε2-4 fusion protein; source: HEK293, transfected, in filtered supernatant; not shown: Fc (human IgE, second, third and fourth constant domains, CHε2-4), C-terminal, kept
Does B1 bind [1]?
Result: binds

B2: M0418 scFv-Fcε fusion protein (Fc fusion, human)
VH: QVQLVQSGAEVKKPGESLKISCKGSEYSFPNYWIAWVRQMPGKGLEWMGMIYPGDSDTRYSPSFQGQVNISADKSSRTAFLEWSSLKASDSATYFCARLGGQLWNSYYYYYYMDVWGKGTTVTVSS
VL: SYELTQPPSASGTPGQRVTISCSGSSSNIGGNTVNWYQQVPGTAPRLLIYKNNQRPSGVPDRFSGSKSGTSASLAISGLRSEDEADYYCEAWDGGLRGGVFGGGTKLTVL
notes: as the VH of m14; (Gly4Ser)3 linker as told for the M0418 scFv construct, written out from the printed formula; as the VL of m14; also called the M0418 construct; IgE clone M0418; source: HEK293, transfected, in filtered supernatant; not shown: Fc (human IgE, second, third and fourth constant domains, CHε2-4), C-terminal, kept
Does B2 bind [2]?
Result: no binding

Does B2 bind [1]?
Result: binds

B3: B14 scFv-Fcε fusion protein (Fc fusion, human)
VH: EVQLVQSGAEVKKPGESLKISCKGSEYSFPNYWIAWVRQMPGKGLEWMGMIYPGDSDTRYSPSFQGQVNISADKSSRTAFLEWSSLKASDSATYFCARLGGQLWNSYYYYYMDVWGKGTTVTVSS
VL: QSVLTQPPSVSVSPGQTARITCSGDKLGNKYAAWYQQKPGQSPVLVIYQDSKRPSGIPERFSGSNSGNTATLTISGTQAMDEADYYCQAWDSSTFYVFGTGTKLTVL
notes: as the VH of m13; as the VL of m13; also called B14 scFv-CHε2-4 fusion protein; source: HEK293, transfected, in filtered supernatant; not shown: Fc (human IgE, second, third and fourth constant domains, CHε2-4), C-terminal, kept
Does B3 bind [1]?
Result: binds
